Laboratory results taken from US20250340881A1, “PHARMACEUTICAL COMPOSITION FOR TREATING CANCER COMPRISING FOXM1 MUTANT OR FOXM1 SHRNA” (Industry-University Cooperation Foundation Hanyang …, priority 2022, published 2025).

Legend:
lung tissues = experiment: CD68 and CD163 immunostaining and immunoblot of lung tissues of injected mice; format: in vivo; details: for protein expression of CD68 and CD163, immunoblot: lung tissue lysates
Procedure: Additionally, the increase of macrophages around the tumor was examined by immunoblot using lung tissue lysates. […] Through the results of this study, it could be observed that the non-phosphorylated point mutant had the effect of inhibiting polarization into tumor-associated macrophages.
Furthermore, CD68, a marker for a broad range of macrophages, and CD163, a marker for tumor-associated macrophages, were analyzed in lung tissues of mice using immunostaining. It was determined that the expression of both CD68 and CD163 markers was increased in the lung tissues of mice injected with the FoxM1 WT protein over-expressed cells (FIG. 13D). Through the present results, it could be observed that there was an effect of promoting the polarization of M2 tumor-associated macrophages in lung cancer cells expressing the FoxM1 WT protein.

A549 cells [1] = experiment: MTT viability of A549 cells co-cultured with THP-1 cells; format: cell-based; details: ratios 1:0, 1:2, 1:4, 1:6, 48 hours
Procedure: The cell viability was measured to investigate whether the FoxM1 phosphorylation and non-phosphorylation point mutations affected the viability of lung cancer cells, after co-culturing the lung cancer cells (A549) expressing the FoxM1 phosphorylation and non-phosphorylated point mutants and monocyte THP-1 cells. A549 cells (4×10^4 cells/mL) and THP-1 cells were co-cultured at ratios of 1:0, 1:2, 1:4, and 1:6 for 48 hours, and after co-culturing for 48 h and washing off the THP-1 cells, the viability of A549 cells attached to the bottom was measured by an MTT assay.

Jurkat cells = experiment: CD25 and CD29 expression (qRT-PCR) in Jurkat cells co-cultured with A549 cells; format: cell-based; details: co-culture 48 h
Procedure: (§1) To investigate the polarization into tumor-infiltrating T lymphocytes (TILs) by A549^S25E cells, the expression levels of CD25 and CD29, which were expressed in TILs, were analyzed by qRT-PCR after co-culturing Jurkat cells (1.2×10^5 cells) and A549^S25E cells (4×10^4 cells) for 48 h. As a result, it was observed that there was a significant increase of 3 folds or more, in the expression of CD25 and CD29 in Jurkat cells co-cultured with A549^S25E cells. […] Additionally, to investigate the inhibitory effect of A549^S25A cells on tumor immune evasion by TAMs or TILs in the tumor microenvironment, the viability change was examined by an MTT assay analysis after co-culturing A549 cells expressing the FoxM1 phosphorylation or non-phosphorylated point mutant, THP-1 cells, and Jurkat cells at a ratio of 1:0:0, 1:6:0, 1:0:6, and 1:6:6 for 48 h. […] That is, there was the inhibitory effect of the cells expressing non-phosphorylated point mutant on the tumor immune evasion by TAMs or TILs in the tumor microenvironment. Therefore, the present invention provided the inhibitory effects of the non-phosphorylated point mutant of FoxM1 on tumor immune evasion.

A549 cells [2] = experiment: Caspase-3 assay in A549 cells over-expressing FoxM1 point mutants; format: cell-based; details: doxycycline 3 μg/ml 48 hours, control set to 1
Procedure: Furthermore, to observe the degree of apoptosis of cancer cells in A549 cells expressing each of the phosphorylation and non-phosphorylated point mutants of FoxM1, a caspase-3 assay was performed to measure the activity of the caspase-3 enzyme (FIG. 5F). A549 cells expressing each protein containing the phosphorylation and non-phosphorylation point mutation of FoxM1 were administered with 3 μg/ml of doxycycline for 48 hours to induce over-expression of each mutant. The cells were lysed and reacted with the fluorescence substrate of caspase-3 (Ac-DEVD-AMC) for 1 hour, and then the fluorescence value (Ex. 380 nm/Emi. 430 nm) was measured using an electron spectrometer (SpectraMax M4 system). The measured fluorescence value indicated the activity of caspase-3, and the relative measurement value in each experimental group was calculated and depicted by a graph, when the measured fluorescence value of the control group set to 1.

A549 cells [3] = experiment: MTT viability of A549 cells co-cultured with THP-1 cells and Jurkat cells; format: cell-based; details: ratios 1:0:0, 1:6:0, 1:0:6, 1:6:6, 48 h
Procedure: as §1

A549 cells [4] = experiment: Viability of A549 cells co-cultured with Jurkat cells; format: cell-based
Excerpt: In addition, through the co-culture of the A549 cells expressing the FoxM1 S25E phosphorylated point mutant (A549^S25E) and Jurkat cells as T cells, it was tried to examine the effects on cancer immunity of T cells (FIG. 7D).

A549 cells [5] = experiment: PD-L1 (CD274) mRNA in A549 cells by real-time PCR; format: cell-based
Procedure: To examine the mRNA expression levels of PD-1 and PD-L1, which are involved in solid tumor immune evasion, in THP-1 cells and the cells expressing the FoxM1 phosphorylated point mutant, the expression of PD-1 (CD279) mRNA, an immune evasion factor, was measured by qRT-PCR in THP-1 monocytes co-cultured with A549^S25E cells for 48 h (FIG. 7B). It was observed that the expression of mRNA of PD-L1 (CD274), an immune evasion factor, increased by 2 folds in the A549^S25E cells expressing the phosphorylated point mutant compared to the control group.

A549 lung cancer cells = experiment: EMT marker expression (immunoblot, real-time PCR) in A549 cells expressing FoxM1 WT or mutants; format: cell-based; details: A549 cells expressing the mutant
Excerpt: To establish a stabilized cell line expressing WT, phosphorylation, and non-phosphorylated point mutants of FoxM1 in lung cancer cells, A549 cells were first infected with pLVX-Tet3G expressing lentivirus, and the infected cells were selected by treating with G418 for 5 days. The selected A549Tet3G cells were infected with lentiviruses expressing WT and phosphorylated point mutants (S25E, S361E, S715E) and non-phosphorylated point mutants (S25A, S361A, S715A) of FoxM1, and then treated with puromycin for 48 hours to establish a stabilized cell line. The established cells were treated with 2 μg/ml of doxycycline to induce expression of WT, phosphorylation, and non-phosphorylated point mutants of FoxM1, and the mRNA and protein expression levels of each FoxM1 point mutant were determined to confirm whether they were well expressed. As shown in FIG. 4A and FIG. 4B, it was confirmed that the WT and each point mutant form of FoxM1 were well expressed through mRNA and protein expression levels. It was observed that the expression levels of N-cadherin and vimentin were higher, and the expression levels of E-cadherin were lower in lung cancer cells expressing the phosphorylated form of FoxM1, specifically, phosphorylated at the phosphorylation site S25, compared to the cells expressing the non-phosphorylated form of FoxM1. In addition, when it was examined whether the expression of these phosphorylation and non-phosphorylated point mutants of FoxM1 affected cell proliferation, it was observed that it had no significant effect on cell proliferation (FIG. 4C).
To establish a stabilized cell line expressing FoxM1 WT in A549 lung cancer cells, first, pLVX-Tet3G expressing lentivirus was infected into cells, and the infected cells were selected by treating 500 μg/ml of G418 for 5 days. The selected A549^Tet3G cells were infected with lentiviruses expressing FoxM1 WT or Mock, and the stabilized cell lines were established by treating with 2 μg/ml of puromycin for 48 hours. After inducing the expression of FoxM1 WT by treating the established cells with 2 μg/ml of doxycycline, the protein expression was observed by immunoblot.

| Molecule | protein expression of CD68 and CD163, immunoblot (lung tissues) | expression of CD68 and CD163 markers, immunostaining (lung tissues; lung tissues of injected mice) | viability of A549 cells co-cultured with THP-1 cells (A549 cells [1]) | expression of CD25 and CD29 in Jurkat cells (Jurkat cells) | activity of caspase-3 (apoptosis) (A549 cells [2]) | viability change of A549 cells co-cultured with THP-1 and Jurkat cells (A549 cells [3]) | viability of A549 cells co-cultured with Jurkat cells (A549 cells [4]; ratio 1:2, 48 h) | viability of A549 cells co-cultured with Jurkat cells (A549 cells [4]; ratio 1:4, 48 h) | viability of A549 cells co-cultured with Jurkat cells (A549 cells [4]; ratio 1:6, 48 h) | mRNA expression of PD-L1 (CD274) compared to the control group (A549 cells [5]; A549 cells expressing the protein) | expression of N-cadherin (CDH2), qRT-PCR and Western blot (A549 lung cancer cells) | expression of CD68 and CD163 markers, immunostaining (in words) (lung tissues; lung tissues of injected mice) | expression of CD25 and CD29 in Jurkat cells (in words) (Jurkat cells) | viability of A549 cells co-cultured with Jurkat cells (in words) (A549 cells [4]; compared to WT or phosphorylation mutant, 48 h) | mRNA (CD274) expression of PD-L1, reduction compared to the control group (A549 cells [5]; A549 cells expressing the mutant) |
| --- | --- | --- | --- | --- | --- | --- | --- | --- | --- | --- | --- | --- | --- | --- | --- |
| S25E: FoxM1 phosphorylated point mutant of the S25 residue, expressed by lentivirus in A549 cells (protein, listed as Homo sapiens) MKTSPRRPLILKRRRLPLPVQNAPEETSEEEPKRSPAQQESNQAEASKEVAESNSCKFPAGIKIINHPTMPNTQVVAIPNNANIHSIITALTAKGKESGSSGPNKFILISCGGAPTQPPGLRPQTQTSYDAKRTEVTLETLGPKPAARDVNLPRPPGALCEQKRETCDGEAAGCTINNSLSNIQWLRKMSSDGLGSRSIKQEMEEKENCHLEQRQVKVEEPSRPSASWQNSVSERPPYSYMAMIQFAINSTERKRMTLKDIYTWIEDHFPYFKHIAKPGWKNSIRHNLSLHDMFVRETSANGKVSFWTIHPSANRYLTLDQVFKQQQKRPNPELRRNMTIKTELPLGARRKMKPLLPRVSSYLVPIQFPVNQSLVLQPSVKVPLPLAASLMSSELARHSKRVRIAPKVLLAEEGIAPLSSAGPGKEEKLLFGEGFSPLLPVQTIKEEEIQPGEEMPHLARPIKVESPPLEEWPSPAPSFKEESSHSWEDSSQSPTPRPKKSYSGLRSPTRCVSEMLVIQHRERRERSRSRRKQHLLPPCVDEPELLFSEGPSTSRWAAELPFPADSSDPASQLSYSQEVGGPFKTPIKETLPISSTPSKSVLPRTPESWRLTPPAKVGGLDFSPVQTSQGASDPLPDPLGLMDLSTTPLQSAPPLESPQRLLSSEPLDLISVPFGNSSPSDIDVPKPGSPEPQVSGLAANRSLTEGLVLDTMNDSLSKILLDISFPGLDEDPLGPDNINWSQFIPELQ | significantly higher | approximately 3 times | gradually increased | ≥ 3 folds | lowest activity of caspase-3 | significantly increased | 1.2 folds | 1.3 folds | 1.5 folds | 2 folds | increased | – | – | – | – |
| S25A: FoxM1 protein with Ser25 substituted with alanine, non-phosphorylated point mutant, expressed by lentivirus in A549 cells (protein, left off: a dimerising Fc or GST, FoxM1 protein with Ser25 substituted with alanine, non-phosphorylated point mutant, expressed by lentivirus in A549 cells) MKTSPRRPLILKRRRLPLPVQNAPAETSEEEPKRSPAQQESNQAEASKEVAESNSCKFPAGIKIINHPTMPNTQVVAIPNNANIHSIITALTAKGKESGSSGPNKFILISCGGAPTQPPGLRPQTQTSYDAKRTEVTLETLGPKPAARDVNLPRPPGALCEQKRETCDGEAAGCTINNSLSNIQWLRKMSSDGLGSRSIKQEMEEKENCHLEQRQVKVEEPSRPSASWQNSVSERPPYSYMAMIQFAINSTERKRMTLKDIYTWIEDHFPYFKHIAKPGWKNSIRHNLSLHDMFVRETSANGKVSFWTIHPSANRYLTLDQVFKQQQKRPNPELRRNMTIKTELPLGARRKMKPLLPRVSSYLVPIQFPVNQSLVLQPSVKVPLPLAASLMSSELARHSKRVRIAPKVLLAEEGIAPLSSAGPGKEEKLLFGEGFSPLLPVQTIKEEEIQPGEEMPHLARPIKVESPPLEEWPSPAPSFKEESSHSWEDSSQSPTPRPKKSYSGLRSPTRCVSEMLVIQHRERRERSRSRRKQHLLPPCVDEPELLFSEGPSTSRWAAELPFPADSSDPASQLSYSQEVGGPFKTPIKETLPISSTPSKSVLPRTPESWRLTPPAKVGGLDFSPVQTSQGASDPLPDPLGLMDLSTTPLQSAPPLESPQRLLSSEPLDLISVPFGNSSPSDIDVPKPGSPEPQVSGLAANRSLTEGLVLDTMNDSLSKILLDISFPGLDEDPLGPDNINWSQFIPELQ | lower | – | not changed compared to the control group | – | highest activity of caspase-3 | reduced | – | – | – | – | reduced and inhibited | significantly low | significantly inhibiting effect | significantly decreased | about 50% |
